# In doi:10.1101/2025.02.24.640013, “Exploration of the influence of environmental changes on the conformational and amyloidogenic landscapes of the zinc finger protein DPF3a by combining biophysical and molecular dynamics approaches” (bioRxiv, 2025):
# Molecular target: the molecule itself
# Assay: negative-stain TEM + far-UV CD + autofluorescence of amyloid fibril formation; tag-free DPF3a alone, ~4.5 uM (0.18 mg/mL), incubated at ~25 °C for seven days in 50 mM Tris-HCl pH 8, 150 mM NaCl (reference); also at pH 12 in 150 mM NaCl and at pH 8 in 300 and 500 mM NaCl, where fibrils formed later, shorter and in lower number
protein,measurement,value
"double PHD fingers 3 (DPF3) protein, isoform DPF3a, full-length (natural protein, human, UniProt Q92784-2 1-357, looked up, Human DPF3, isoform DPF3a, full length; molecular mass 40244 Da; Metalloprotein with a C2H2 zinc finger; also called full-length DPF3a; source: E. coli BL21 Rosetta (DE3), purified (GSTrap FF, on-column TEV cleavage of the GST tag); not shown: GST, N-terminal, cleaved) MATVIHNPLKALGDQFYKEAIEHCRSYNSRLCAERSVRLPFLDSQTGVAQNNCYIWMEKRHRGPGLAPGQLYTYPARCWRKKRRLHPPEDPKLRLLEIKPEVELPLKKDGFTSESTTLEALLRGEGVEKKVDAREEESIQEIQRVLENDENVEEGNEEEDLEEDIPKRKNRTRGRARGSAGGRRRHDAASQEDHDKPYVCDICGKRYKNRPGLSYHYAHTHLASEEGDEAQDQETRSPPNHRNENHRPQKGPDGTVIPNNYCDFCLGGSNMNKKSGRPEELVSCADCGRSAHLGGEGRKEKEAAAAARTTEDLFGSTSESDTSTFHGFDEDDLEEPRSCRGRRSGRGSPTADKKGSC",binding result,binds
